Assay [1] deals with T1, Human PD-1 (Sino Biological Inc., Beijing, China) (human, UniProt Q15116 25-167).
T1 construct: also called hPD-1
In words: indirect ELISA, human PD-1 coated at 0.1 µg/mL. On the procedure: The PBS buffer was aspirated from the 96-well plate, and the plate was washed once with PBST (PBS containing 0.05% Tween 20, pH 7.4). 200 μL of PBST/1% no-fat milk was added to each well and incubated at room temperature for 1 h for blocking. The blocking solution was removed and the plate was washed 3 times with PBST. […] The reaction solution was removed and the plate was washed 3 times with PBST. […] The plate was washed 3 times with PBST.
A general note: ELISA stands for enzyme-linked immunosorbent assay.

In assay [2] the target is T2, human PD-1/His (Sino Biological Inc.) (human, UniProt Q15116 25-170).
T2 construct: extracellular domain; Bought protein; also called extracellular domain fragment of PD-1 protein containing His tag; not shown: His tag
Briefly: BLI (Octet), human PD-1/His on Ni-NTA sensor, antibody 3.125-100 nM. From the text:
We used the bio-layer interferometry (BLI) technique to characterize the binding kinetics and affinity of purified murine monoclonal antibodies. According to the standard procedure, the Octet molecular interaction instrument (ForteBio Octet RED & QK system, PALL corp.) was operated. […] The antigen-antibody association and dissociation kinetics were then tracked.

Assay [3] has as its target T3, human ICOS/Fc (Sino Biological Inc.) (human, UniProt Q9Y6W8 21-141, limits assumed).
T3 construct: Bought protein; not shown: Fc
T3 sequence (looked up): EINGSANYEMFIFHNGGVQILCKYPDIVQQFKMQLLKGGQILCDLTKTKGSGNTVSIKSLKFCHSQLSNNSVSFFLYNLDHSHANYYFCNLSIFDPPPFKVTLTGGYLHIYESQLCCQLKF
Briefly: indirect ELISA, human ICOS/Fc coated at 0.1 µg/mL, HRP goat anti-mouse IgG. On the procedure:
(§1) Human PD-1/His, human ICOS/Fc, human CTLA4/His, human CD28/Fc, cynomolgus monkey PD-1/Fc, and mouse PD-1/His (all from Sino Biological Inc., Beijing, China) were diluted with PBS buffer to 0.1 μg/mL, and added to the 96-well plate at a volume of 100 μL/well and placed at 16° C. for 16 to 20 h. The PBS buffer was aspirated from the 96-well plate, and the plate was washed once with PBST (PBS containing 0.05% Tween 20, pH 7.4). 200 μL of PBST/1% no-fat milk was added to each well and incubated at room temperature for 1 h for blocking. The blocking solution was removed and the plate was washed 3 times with PBST. 100 μL of the anti-PD-1 antibody to be tested was added to each well, and incubated at room temperature for 1.5 h. The reaction solution was removed and the plate was washed 3 times with PBST. 50 μL of the HRP-labeled goat anti-mouse IgG secondary antibody (The Jackson Laboratory) diluted (dilution ratio 1:4000) was added to each well. Incubated at room temperature for 1 h. The plate was washed 3 times with PBST. 100 μL of the TMB was added to each well and incubated at room temperature for 5-10 min 50 μL of 0.2 M sulfuric acid was added to each well to terminate the reaction. Absorbance values were read at dual wavelengths of 450/620 nm in a microplate reader.

Assay [4] deals with T4, human CD28/Fc (Sino Biological Inc.) (human, UniProt P10747 19-152).
T4 construct: Bought protein; not shown: Fc
In words: indirect ELISA, human CD28/Fc coated at 0.1 µg/mL, HRP goat anti-mouse IgG. On the procedure: as §1

Assay [5] concerns the target T5, mouse PD-1/His (Sino Biological Inc.) (mouse, UniProt Q02242 25-167).
T5 construct: Bought protein; not shown: His tag
T5 sequence (looked up): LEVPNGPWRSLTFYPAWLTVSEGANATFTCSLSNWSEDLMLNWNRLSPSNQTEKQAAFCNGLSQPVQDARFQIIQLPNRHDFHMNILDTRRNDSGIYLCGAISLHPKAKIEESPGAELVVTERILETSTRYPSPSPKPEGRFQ
In words: indirect ELISA, mouse PD-1/His coated at 0.1 µg/mL, HRP goat anti-mouse IgG. On the procedure: as §1

Assay [6] concerns the target T2, human PD-1/His (Sino Biological Inc.). In words: indirect ELISA, human PD-1/His coated at 0.1 µg/mL, HRP goat anti-mouse IgG. As to the method:
as §1

The target in assay [7] is T6, human CTLA4/His (Sino Biological Inc.) (human, UniProt P16410 36-162, limits assumed).
T6 construct: Bought protein; not shown: His tag
In words: indirect ELISA, human CTLA4/His coated at 0.1 µg/mL, HRP goat anti-mouse IgG. On the procedure: as §1

For assay [8], the target named is T7, cynomolgus monkey PD-1/Fc (Sino Biological Inc.) (cynomolgus monkey, UniProt B0LAJ3 25-170).
T7 construct: Bought protein
Briefly: indirect ELISA, cynomolgus monkey PD-1/Fc coated at 0.1 µg/mL, HRP goat anti-mouse IgG. As to the method: as §1

T2 sequence (Q15116 25-170): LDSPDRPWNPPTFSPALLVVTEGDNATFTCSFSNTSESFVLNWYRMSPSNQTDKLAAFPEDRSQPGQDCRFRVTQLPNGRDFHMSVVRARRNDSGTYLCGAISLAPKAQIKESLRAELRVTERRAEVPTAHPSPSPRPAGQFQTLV
T7 sequence (B0LAJ3 entry or part of it limits assumed): as the sequence (Q15116 25-170) above, with D2E, P10A, V19L, T35A, Q75R, T144A counted along it
T6 sequence (P16410 36-162 limits assumed): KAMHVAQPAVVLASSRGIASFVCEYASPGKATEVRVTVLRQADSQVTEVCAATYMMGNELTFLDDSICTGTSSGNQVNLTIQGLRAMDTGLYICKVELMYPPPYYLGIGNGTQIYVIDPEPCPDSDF
T1 sequence (Q15116 25-167 limits assumed): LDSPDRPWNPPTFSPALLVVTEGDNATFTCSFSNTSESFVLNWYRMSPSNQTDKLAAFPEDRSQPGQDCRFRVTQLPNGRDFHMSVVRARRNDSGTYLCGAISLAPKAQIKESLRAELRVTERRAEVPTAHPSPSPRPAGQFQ

B1: murine monoclonal antibody AB12M1 (antibody, mouse IgG2b, V domains shown)
VH: EVKLVESGGGLVKPGGSLKLSCAASGFTFSSYGMSWVRQTPEKRLEWVATISGGGRDTYYPDSVKGRFTISRDNAKNNLYLQMSSLRSEDTALYYCARQKDTSWFVHWGQGTLVTVSA
VL: not shown
notes: subclass identified as mouse IgG2b (Kappa), purified from hybridoma supernatant; also called antibody of hybridoma clone #32
B1 gave an EC50 in assay [1] of roughly 2 ng/mL. Further, the Kd in assay [2] was less than 1 pM. The molecule further showed a koff in assay [2] of less than 1e-07 s⁻¹. The kon in assay [2] was found to be 109000 M⁻¹ s⁻¹. Besides, the binding result in assay [3], in assay [4], in assay [5] and in assay [7] was “no binding (tested: 10 µg/mL)” each time. Also, the “EC50 (read off the curve)” value in assay [6] is roughly 4 ng/mL; in assay [8], roughly 3 ng/mL.

Usually EC50 stands for the concentration needed to bring the measured effect to its halfway point. What is called Kd is the equilibrium constant for the complex coming apart. Usually koff stands for a measure of how fast the partners let go of each other. What is called kon is a measure of how fast the partners come together. As a reminder, the EC50 (read off the curve) is the concentration giving half of the maximal effect.

The values are drawn from patent US20190367617A1 (AMPSOURCE BIOPHARMA SHANGHAI, published 2019).
